# Test system: Clp-GST (Xanthomonas oryzae pv. oryzae PXO99A)
# Assay: MST
# Settings: MST: 50 mM Tris pH 7.5, 150 mM NaCl, 10 mM MgCl2, 0.05% Tween 20, 25 C, buffer not given
substance,measurement,value
"xanfur promoter, FAM-labeled",Kd,0.687 nM
